Square brackets hold non-standard residues; d marks the D form. Ends that are not written are not given here. * marks the point of attachment. Palmitoyl = CCCCCCCCCCCCCCCC(=O)*; pS = N[C@@H](COP(=O)(O)O)C(=O)O
Tests used:
[1] = system: MC3T3-E1 mouse calvarial osteoblasts; assay: Growth and differentiation of MC3T3-E1 osteoblasts on self assembled nanofibers coated on glass; assay type: cell-based
Protocol: Cell culture preparation includes treating glass coverslips overnight in 100% ethanol. […] of SEQ ID NO:1, was spin-coated at 1500 r.p.m. for 30 seconds onto the treated glass cover slips. Samples were dried under vacuum to promote self-assembly on the glass surface. Samples were then immersed in 10% iodine for 15 minutes to cross-link the assembled PA nanofibers. Cross-linked samples were thoroughly, but gently rinsed by immersion in water 3×. Rinsed slides were dried by vacuum desiccation and placed in a 24-well tissue culture well plate. MC3T3-E1 mouse calvarial osteoblasts were plated at 10,000 cells/coverslip in 1 mL of MEM-a culture medium containing 10% fetal bovine serum, 1% penicillin/streptomycin, 30 mM β-glycerolphosphate, and […] ascorbic acid. The medium was exchanged every 3 days.

[2] = Gelation / self assembly of peptide amphiphile solutions, TEM of bulk gels; assay type: physicochemical
Protocol: Synthesis of peptide amphiphile, SEQ ID NO:1, was synthesized with standard Fmoc chemistry on an Applied Biosystems […] automated peptide synthesizer. The peptide was grown from the C terminus to N terminus with the sequence CCCCGGGSS(P)DS(P)D, SEQ ID NO:1, and the N terminus was capped with a 16 carbon fatty acid. The synthesis of the peptide amphiphile, SED ID NO:1, was verified by ESI mass spectroscopy indicating correct molecular weight. […] To confirm the formation of fibers, transmission electron microscopy (TEM) images of these bulk gels were taken and are shown in FIG. 3. Fibers on the order of 5-10 nm in diameter can be seen, as well as globular micelles ranging from 10-15 nm in diameter.

[3] = Coassembly of negatively and positively charged peptide amphiphiles; assay type: physicochemical; conditions: 10 mg/mL, mixed with approximately 3 molar equivalents of SEQ ID NO:22
Source text: This example illustrates the self assembly of negatively charged peptide amphiphiles using positively charged peptide amphiphiles, coassembly, to induce nanofiber gel formation. […] Similar approaches may be applied using variations the charged molecules involved.

## C16H31O-CCCCGGGSS(P)DS(P)D (Palmitoyl-CCCCGGGS[pS]D[pS]D; not fully specified (C-terminus); cysteine pairing not given here) [SEQ ID NO 1, peptide amphiphile: alkyl tail C16H31O, structural peptide CCCCGGG, functional peptide SS*DS*D]
[1]; MC3T3-E1, 10,000 cells/coverslip, iodine cross-linked nanofibers
  cell adhesion and spreading on nanofiber-coated glass slides: adhering and spreading
[1]; MC3T3-E1, 17 days of culture
  osteoblastic differentiation, mineral by Von Kossa staining: producing significant mineral
[1]; MC3T3-E1, after 12 days (FIG. 4B legend)
  cell layer on self assembled peptide amphiphile coated glass: confluent layer
[2]; 1% and 0.1% solutions, HCl and Ca2+ addition
  gelation of solution: found to gel
[2]; bulk gels
  globular micelle diameter (TEM): 10-15 nm
  nanofiber diameter (TEM): 5-10 nm

## SEQ ID NO:25: peptide amphiphiles having an SSDSD peptide sequence; negatively charged; possibly the SEQ ID NO:1 amphiphile (also: alkyl tail)
[3]
  result of coassembly: self-supporting PA nanofiber gel

— US7534761B1, “Charged peptide-amphiphile solutions and self-assembled peptide nanofiber networks formed therefrom” (North Western University, priority 2002, dated 2009)
